Here are results for 4 molecules from patent publication US10196657B2, “Methods of producing 7-carbon chemicals via methyl-ester shielded carbon chain elongation” (INVISTA North America S.á r.l., priority 2012, dated 2019).

Test [1] is described as follows: ω-transaminase activity assay, 7-aminoheptanol to 7-oxoheptanol. It is filed as biochemical. How it is done: A nucleotide sequence encoding an N-terminal His-tag was added to the Chromobacterium violaceum, Pseudomonas syringae and Rhodobacter sphaeroides genes encoding the ω-transaminases of SEQ ID NOs: 8, 10 and 11, respectively (see FIGS. 7F and 7G) such that N-terminal HIS tagged ω-transaminases could be produced. The modified genes were cloned into a pET21a expression vector under the T7 promoter. Each expression vector was transformed into a BL21[DE3] E. coli host. Each resulting recombinant E. coli strain were cultivated at 37° C. in a 250 mL shake flask culture containing 50 mL LB media and antibiotic selection pressure, with shaking at 230 rpm. Each culture was induced overnight at 16° C. using 1 mM IPTG.
(§1) The pellet from each induced shake flask culture was harvested via centrifugation. Each pellet was resuspended and lysed via sonication. The cell debris was separated from the supernatant via centrifugation and the cell free extract was used immediately in enzyme activity assays.
Enzyme activity assays in the reverse direction (i.e., 7-aminoheptanol to 7-oxoheptanol) were performed in a buffer composed of a final concentration of 50 mM HEPES buffer (pH=7.5), 10 mM 7-aminoheptanol, 10 mM pyruvate, and 100 μM pyridoxyl 5′ phosphate. Each enzyme activity assay reaction was initiated by adding cell free extract of the ω-transaminase gene product or the empty vector control to the assay buffer containing the 7-aminoheptanol and then incubated at 25° C. for 4 h, with shaking at 250 rpm. The formation of L-alanine was quantified via RP-HPLC.

The conditions of test [2]: Kaulmann et al., 2007; cited from earlier work.
The nature of test [3]: ω-transaminase activity assay, forward direction (pimelate semialdehyde to 7-aminoheptanoate). It is filed as biochemical. As to conditions: concluded from reversibility of the ω-transaminase activity. How it is done: (§2) A sequence encoding an N-terminal His-tag was added to the genes from Chromobacterium violaceum, Pseudomonas syringae, Rhodobacter sphaeroides, and Vibrio Fluvialis encoding the ω-transaminases of SEQ ID NOs: 8, 10, 11 and 13, respectively (see FIGS. 7F and 7G) such that N-terminal HIS tagged ω-transaminases could be produced. Each of the resulting modified genes was cloned into a pET21a expression vector under control of the T7 promoter and each expression vector was transformed into a BL21[DE3] E. coli host. The resulting recombinant E. coli strains were cultivated at 37° C. in a 250 mL shake flask culture containing 50 mL LB media and antibiotic selection pressure, with shaking at 230 rpm. Each culture was induced overnight at 16° C. using 1 mM IPTG.
as §1
Enzyme activity in the forward direction (i.e., pimelate semialdehyde to 7-aminoheptanoate) was confirmed for the transaminases of SEQ ID NO 10, SEQ ID NO 11 and SEQ ID NO 13. Enzyme activity assays were performed in a buffer composed of a final concentration of 50 mM HEPES buffer (pH=7.5), 10 mM pimelate semialdehyde, 10 mM L-alanine and 100 μM pyridoxyl 5′ phosphate. Each enzyme activity assay reaction was initiated by adding a cell free extract of the ω-transaminase gene product or the empty vector control to the assay buffer containing the pimelate semialdehyde and incubated at 25° C. for 4 h, with shaking at 250 rpm. The formation of pyruvate was quantified via RP-HPLC.

Test [4] can be described thus: ω-transaminase activity assay, reverse direction (7-aminoheptanoate to pimelate semialdehyde). In kind it is biochemical. As to conditions: cell free extract, 10 mM 7-aminoheptanoate, 10 mM pyruvate, 25° C., 4 h; against empty vector control; FIG. 15. How it is done:
as §2, §1
Enzyme activity assays in the reverse direction (i.e., 7-aminoheptanoate to pimelate semialdehyde) were performed in a buffer composed of a final concentration of 50 mM HEPES buffer (pH=7.5), 10 mM 7-aminoheptanoate, 10 mM pyruvate and 100 μM pyridoxyl 5′ phosphate. Each enzyme activity assay reaction was initiated by adding cell free extract of the ω-transaminase gene product or the empty vector control to the assay buffer containing the 7-aminoheptanoate and incubated at 25° C. for 4 h, with shaking at 250 rpm. The formation of L-alanine from pyruvate was quantified via RP-HPLC.

The conditions of test [5]: Haywood et al. 1988; Slater et al. 1998; cited from earlier work.
A short description of test [6]: Carboxylate reductase activity assay, pimelate to pimelate semialdehyde (NADPH consumption). In kind it is biochemical. The following applies: purified enzyme enhanced by sfp gene product, 2 mM pimelate, room temperature, 20 min; against empty vector control; FIG. 10. The protocol:
A sequence encoding a HIS-tag was added to the genes from Segniliparus rugosus and Segniliparus rotundus that encode the carboxylate reductases of SEQ ID NOs: 4 and 7, respectively (see FIGS. 7C and 7F), such that N-terminal HIS tagged carboxylate reductases could be produced. Each of the modified genes was cloned into a pET Duet expression vector along with a sfp gene encoding a HIS-tagged phosphopantetheine transferase from Bacillus subtilis, both under the T7 promoter. Each expression vector was transformed into a BL21[DE3] E. coli host and the resulting recombinant E. coli strains were cultivated at 37° C. in a 250 mL shake flask culture containing 50 mL LB media and antibiotic selection pressure, with shaking at 230 rpm. Each culture was induced overnight at 37° C. using an auto-induction media.
The pellet from each induced shake flask culture was harvested via centrifugation. Each pellet was resuspended and lysed via sonication, and the cell debris was separated from the supernatant via centrifugation. […]
Enzyme activity assays (i.e., from pimelate to pimelate semialdehyde) were performed in triplicate in a buffer composed of a final concentration of 50 mM HEPES buffer (pH=7.5), 2 mM pimelate, 10 mM MgCl2, 1 mM ATP and 1 mM NADPH. […] The consumption of NADPH was monitored by absorbance at 340 nm.

For test [7] the following is noted: Samsonova et al., 2003; cited from earlier work.

B1: SEQ ID NO 8: Chromobacterium violaceum ω-transaminase, Genbank Accession No. AAQ59697.1 (protein, listed as Chromobacterium violaceum)
chain: MQKQRTTSQWRELDAAHHLHPFTDTASLNQAGARVMTRGEGVYLWDSEGNKIIDGMAGLWCVNVGYGRKDFAEAARRQMEELPFYNTFFKTTHPAVVELSSLLAEVTPAGFDRVFYTNSGSESVDTMIRMVRRYWDVQGKPEKKTLIGRWNGYHGSTIGGASLGGMKYMHEQGDLPIPGMAHIEQPWWYKHGKDMTPDEFGVVAARWLEEKILEIGADKVAAFVGEPIQGAGGVIVPPATYWPEIERICRKYDVLLVADEVICGFGRTGEWFGHQHFGFQPDLFTAAKGLSSGYLPIGAVFVGKRVAEGLIAGGDFNHGFTYSGHPVCAAVAHANVAALRDEGIVQRVKDDIGPYMQKRWRETFSRFEHVDDVRGVGMVQAFTLVKNKAKRELFPDFGEIGTLCRDIFFRNNLIMRACGDHIVSAPPLVMTRAEVDEMLAVAERCLEEFEQTLKARGLA
For B1, the “acceptance of 7-aminoheptanol as substrate (formation of L-alanine, RP-HPLC)” value in test [1] (cell free extract, 10 mM 7-aminoheptanol, 10 mM pyruvate, 25° C., 4 h, against empty vector control, FIG. 19) is on record as “accepted 7-aminoheptanol as substrate”. Further, the “acceptance of 7-oxoheptanol as substrate, forming 7-aminoheptanol (concluded from reversibility)” value in test [1] (concluded from reversibility of the ω-transaminase activity (Example 2)) is “accept 7-oxoheptanol as substrate”. In addition, the “activity accepting 6-aminohexanoic acid as amino donor” value in test [2] is reported as “accepting 6-aminohexanoic acid as amino donor”. Besides, in test [3], the “acceptance of pimelate semialdehyde as substrate, synthesizing 7-aminoheptanoate (conclusion from confirmed reversibility)” value is on record as “accepted pimelate semialdehyde as substrate”. Besides, the “acceptance of 7-aminoheptanoate as substrate (formation of L-alanine from pyruvate, RP-HPLC)” value in test [4] is listed as “accepted 7-aminoheptanote as substrate”.

B2: β-ketothiolase encoded by bktB from Cupriavidus necator: β-ketothiolase classified under EC 2.3.1.16, gene product of bktB (protein, UniProt Q0KBP1 1-394, looked up)
Beta-ketothiolase BktB: MTREVVVVSGVRTAIGTFGGSLKDVAPAELGALVVREALARAQVSGDDVGHVVFGNVIQTEPRDMYLGRVAAVNGGVTINAPALTVNRLCGSGLQAIVSAAQTILLGDTDVAIGGGAESMSRAPYLAPAARWGARMGDAGLVDMMLGALHDPFHRIHMGVTAENVAKEYDISRAQQDEAALESHRRASAAIKAGYFKDQIVPVVSKGRKGDVTFDTDEHVRHDATIDDMTKLRPVFVKENGTVTAGNASGLNDAAAAVVMMERAEAERRGLKPLARLVSYGHAGVDPKAMGIGPVPATKIALERAGLQVSDLDVIEANEAFAAQACAVTKALGLDPAKVNPNGSGISLGHPIGATGALITVKALHELNRVQGRYALVTMCIGGGQGIAAIFERI
On to B2, for which, in test [5], the “substrates accepted, forming the CoA-activated C7 aliphatic backbone” value is “accepts propanoyl-CoA and pentanoyl-CoA as substrates”.

B3: SEQ ID NO 4: Segniliparus rugosus carboxylate reductase, Genbank Accession No. EFV11917.1 (protein, listed as Segniliparus rugosus)
chain: MGDGEERAKRFFQRIGELSATDPQFAAAAPDPAVVEAVSDPSLSFTRYLDTLMRGYAERPALAHRVGAGYETISYGELWARVGAIAAAWQADGLAPGDFVATVGFTSPDYVAVDLAAARSGLVSVPLQAGASLAQLVGILEETEPKVLAASASSLEGAVACALAAPSVQRLVVFDLRGPDASESAADERRGALADAEEQLARAGRAVVVETLADLAARGEALPEAPLFEPAEGEDPLALLIYTSGSTGAPKGAMYSQRLVSQLWGRTPVVPGMPNISLHYMPLSHSYGRAVLAGALSAGGTAHFTANSDLSTLFEDIALARPTFLALVPRVCEMLFQESQRGQDVAELRERVLGGRLLVAVCGSAPLSPEMRAFMEEVLGFPLLDGYGSTEALGVMRNGIIQRPPVIDYKLVDVPELGYRTTDKPYPRGELCIRSTSLISGYYKRPEITAEVFDAQGYYKTGDVMAEIAPDHLVYVDRSKNVLKLSQGEFVAVAKLEAAYGTSPYVKQIFVYGNSERSFLLAVVVPNAEVLGARDQEEAKPLIAASLQKIAKEAGLQSYEVPRDFLIETEPFTTQNGLLSEVGKLLRPKLKARYGEALEARYDEIAHGQADELRALRDGAGQRPVVETVVRAAVAISGSEGAEVGPEANFADLGGDSLSALSLANLLHDVFEVEVPVRIIIGPTASLAGIAKHIEAERAGASAPTAASVHGAGATRIRASELTLEKFLPEDLLAAAKGLPAADQVRTVLLTGANGWLGRFLALEQLERLARSGQDGGKLICLVRGKDAAAARRRIEETLGTDPALAARFAELAEGRLEVVPGDVGEPKFGLDDAAWDRLAEEVDVIVHPAALVNHVLPYHQLFGPNVVGTAEIIRLAITAKRKPVTYLSTVAVAAGVEPSSFEEDGDIRAVVPERPLGDGYANGYGNSKWAGEVLLREAHELVGLPVAVFRSDMILAHTRYTGQLNVPDQFTRLVLSLLATGIAPKSFYQQGAAGERQRAHYDGIPVDFTAEAITTLGAEPSWFDGGAGFRSFDVFNPHHDGVGLDEFVDWLIEAGHPISRIDDHKEWFARFETAVRGLPEAQRQHSLLPLLRAYSFPHPPVDGSVYPTGKFQGAVKAAQVGSDHDVPHLGKALIVKYADDLKALGLL
Turning to B3, the “acceptance of pimelate as substrate (NADPH consumption, absorbance at 340 nm)” value in test [6] is “accepted pimelate as substrate”.

B4: SEQ ID NO 12: Escherichia coli diamine ω-transaminase, Genbank Accession No. AAA57874.1 (protein, listed as Escherichia coli)
chain: MNRLPSSASALACSAHALNLIEKRTLDHEEMKALNREVIEYFKEHVNPGFLEYRKSVTAGGDYGAVEWQAGSLNTLVDTQGQEFIDCLGGFGIFNVGHRNPVVVSAVQNQLAKQPLHSQELLDPLRAMLAKTLAALTPGKLKYSFFCNSGTESVEAALKLAKAYQSPRGKFTFIATSGAFHGKSLGALSATAKSTFRKPFMPLLPGFRHVPFGNIEAMRTALNECKKTGDDVAAVILEPIQGEGGVILPPPGYLTAVRKLCDEFGALMILDEVQTGMGRTGKMFACEHENVQPDILCLAKALGGGVMPIGATIATEEVFSVLFDNPFLHTTTFGGNPLACAAALATINVLLEQNLPAQAEQKGDMLLDGFRQLAREYPDLVQEARGKGMLMAIEFVDNEIGYNFASEMFRQRVLVAGTLNNAKTIRIEPPLTLTIEQCELVIKAARKALAAMRVSVEEA
For the molecule B4, in test [7], the diamine substrate range result is “accepts a broad range of diamine carbon chain length substrates”.
